Assay results reported in PMC6429369, “Characterization of Stackebrandtia nassauensis GH 20 Beta-Hexosaminidase, a Versatile Biocatalyst for Chitobiose Degradation” (International Journal of Molecular Sciences, 2019).

How the values were obtained:
[1] = substrate: CC(=O)N[C@H]1[C@H](Oc2ccc([N+](=O)[O-])cc2)O[C@H](CO)[C@H](O)[C@@H]1O; experiment: purified protein; assay type: biochemical, Stackebrandtia nassauensis; conditions: 50 mM phosphate-citric acid buffer pH 6.0, 37 °C, substrate 0.01-10 mM
[2] = substrate: CC(=O)N[C@H]1[C@H](Oc2ccc([N+](=O)[O-])cc2)O[C@H](CO)[C@@H](O)[C@@H]1O; experiment: purified protein; assay type: biochemical, Stackebrandtia nassauensis; conditions: 50 mM phosphate-citric acid buffer pH 6.0, 37 °C, substrate 0.01-10 mM

B1: SnHex (Stackebrandtia nassauensis GH20 beta-N-acetylhexosaminidase) (Stackebrandtia nassauensis DSM 44728) (protein)
chain: VADPSHAKAATPSTIPALGEWTAASGTYTYSESSRLVVDPDHADELTDEAQTAAADLAALTGTEPEVVTGEPETGDVSLALGGGEPLGAEGYSLDVGDTFAITANADAGAFYGTRTLLQLVKQDKQIPAGTATDVPKKPERGLMVDVGRKYMSVEWLKKHIKDLSYAKLNYFHLHLSDTFGFRLESETHPEVTSEDHYTKAEIRELVDLAAKYHVTLVPEIDVPGHVNAMLAQHPELQLEDQSGNKDPYFLDLSNPDAYTLVEDLIKEYLPLFPGPYWHIGADEYVGDYGKYPQLEAYAKEHYGPDAVGKDAYYGFINWANEIVRDGGKTTRMWNDGIKEGDGTIAPEANIVVDYWSTHGIDPQKLLDRGHTVMNASWTPTYYVLGGTDIDRRWLYEDWNPDLFEKTLTIDDPKRNLGSKIHVWCDHPDAQTEDQITEGIRLPLRGLAQQTWGSPKLVEGYDDFVAIDDAIGRAPGFSSL
notes: full ORF, 1578 bp, 526 residues, about 58 kDa; pET-30a in E. coli BL21(DE3) lacZ-; Ni-NTA and anion exchange; N-terminal His/thrombin/S-tag/enterokinase by cloning (text elsewhere says C-terminal His6), tags kept; primers translate to N-term VADPSH (after ATG), C-term GFSSL-stop
Question: For B1, which Km [1] is on record?
Answer: The Km was 3290 ± 320 µM.

Question: What about the Vmax [1] of the same protein?
Answer: The Vmax was 44 µM/min/mg.

Question: What about the kcat [1] of the same protein?
Answer: The kcat was 0.712 ± 0.0477 s⁻¹.

Question: And the kcat/Km [1]?
Answer: Its kcat/Km is 217 ± 38.3 M⁻¹ s⁻¹.

Question: What about the Km [2] of the same protein?
Answer: The Km was 2470 ± 50 µM.

Question: And the Vmax [2]?
Answer: The Vmax was 57 µM/min/mg.

Question: What about the kcat [2] of the same protein?
Answer: Its kcat is 0.917 ± 0.0615 s⁻¹.

Question: And the kcat/Km [2]?
Answer: The kcat/Km was 372 ± 33.3 M⁻¹ s⁻¹.
